Measured values reported in patent publication US7368293 (ROCKEFELLER UNIVERSITY, dated 2008).

Molecular target: the molecule itself
Experiment: in vitro translation, gel mobility-shift with 32P APF-1 probe; inferred from heterodimer bands and absence of monomer complexes
Method: Since amino acids in the ligand binding domain of the estrogen receptor are known to be necessary for receptor dimerization and subsequent DNA binding (Kumar & Chambon, 1988; Fawell et al., 1990), we determined whether HNF-4 binds to its recognition site as a monomer or as a dimer. The full length cDNA (Xho I) was co-translated in vitro with either of the two truncated products that bind DNA (PflM I and Hga I) and the products were tested in the mobility-shift assay. When the full length and truncated transcripts were translated together, complexes of intermediate mobility were produced with both the APF-1 probe (lanes 3 and 5, FIG. 5D) and the −151 to −130 TTR probe (not shown).

B1: HNF-4 (hepatocyte nuclear factor 4), full length protein translated in vitro from pf7 cDNA (Xho I-cut template) (receptor)
chain: MDMADYSAALDPAYTTLEFENVQVLTMGNDTSPSEGANLNSSNSLGVSALCAICGDRATGKHYGASSCDGCKGFFRRSVRKNHMYSCRFSRQCVVDKDKRNQCRYCRLKKCFRAGMKKEAVQNERDRISTRRSSYEDISLPSINALLQAEVLSQQITSPISGINGDIRAKRIASITDVCESMKEQLLVLVEWAKYIPAFCELLLDDQVALLRAHAGEHLLLGATKRSMVFKDVLLLGNDYIVPRHCPELAEMSRVSIRILDELVLPFQELQIDDNEYACLKAIIFFDPDAKGLSDPGKIKRLRSQVQVSLEDYINDRQYDSRGRFGELLLLLPTLQSITWQMIEQIQFIKLFGMAKIDNLLQEMLLGGSASDAPHAHHPLHPHLMQEHMGTNVIVANTMPSHLTNGQMSTPETPQPSPPSGSGSESYKLLPGAITTIVKPPSAIPQPTITKQEAI
notes: Translated in rabbit reticulocyte lysate from T3/T7 transcripts of pf7 (rat liver cDNA); also called full length cDNA (Xho I); in vitro synthesized HNF-4
binding result: binds
